Blank lines part the entries; values can stand above or below the substance they belong to.
Legend:
[1] = biological target: human collagen type I (human) (UniProt P02452); assay: ex vivo ELISA, baboon plasma vWF on human collagen type I, % of pre-sample; 82D6A3 600 µg/kg, 30 min
[2] = biological target: human collagen type I (human) (UniProt P02452); assay: ex vivo ELISA, baboon plasma vWF on human collagen type I, % of pre-sample; 82D6A3 100 µg/kg group, 0 min
[3] = biological target: human collagen type I (human) (UniProt P02452); assay: ex vivo ELISA, baboon plasma vWF on human collagen type I, % of pre-sample; 82D6A3 300 µg/kg, 150 min
[4] = biological target: human collagen type I (human) (UniProt P02452); assay: ex vivo ELISA, baboon plasma vWF on human collagen type I, % of pre-sample; 82D6A3 100 µg/kg, 30 min
[5] = biological target: human collagen type I (human) (UniProt P02452); assay: ex vivo ELISA, baboon plasma vWF on human collagen type I, % of pre-sample; 82D6A3 600 µg/kg, 24 h
[6] = biological target: human collagen type I (human) (UniProt P02452); assay: ex vivo ELISA, baboon plasma vWF on human collagen type I, % of pre-sample; 82D6A3 300 µg/kg, 60 min
[7] = biological target: human collagen type I (human) (UniProt P02452); assay: ex vivo ELISA, baboon plasma vWF on human collagen type I, % of pre-sample; 82D6A3 600 µg/kg, 300 min
[8] = biological target: human collagen type I (human) (UniProt P02452); assay: ex vivo ELISA, baboon plasma vWF on human collagen type I, % of pre-sample; 82D6A3 100 µg/kg, 60 min
[9] = biological target: human collagen type I (human) (UniProt P02452); assay: ex vivo ELISA, baboon plasma vWF on human collagen type I, % of pre-sample; 82D6A3 300 µg/kg group, 0 min
[10] = biological target: human collagen type I (human) (UniProt P02452); assay: ex vivo ELISA, baboon plasma vWF on human collagen type I, % of pre-sample; 82D6A3 600 µg/kg, 60 min
[11] = biological target: human collagen type I (human) (UniProt P02452); assay: ex vivo ELISA, baboon plasma vWF on human collagen type I, % of pre-sample; 82D6A3 300 µg/kg, 300 min
[12] = biological target: human collagen type I (human) (UniProt P02452); assay: ex vivo ELISA, baboon plasma vWF on human collagen type I, % of pre-sample; 82D6A3 300 µg/kg, 30 min
[13] = biological target: human collagen type I (human) (UniProt P02452); assay: ex vivo ELISA, baboon plasma vWF on human collagen type I, % of pre-sample; 82D6A3 600 µg/kg, 150 min
[14] = biological target: human collagen type I (human) (UniProt P02452); assay: ex vivo ELISA, baboon plasma vWF on human collagen type I, % of pre-sample; 82D6A3 300 µg/kg, 48 h
[15] = biological target: human collagen type I (human) (UniProt P02452); assay: ex vivo ELISA, baboon plasma vWF on human collagen type I, % of pre-sample; 82D6A3 300 µg/kg, 24 h
[16] = biological target: human collagen type I (human) (UniProt P02452); assay: ex vivo ELISA, baboon plasma vWF on human collagen type I, % of pre-sample; 82D6A3 600 µg/kg group, 0 min
[17] = biological target: baboon platelet GPIb (on baboon platelets) (baboon (Papio ursinus)); assay: GPIb occupancy on baboon platelets, 300 minutes after bolus of 4 mg/kg
baboon platelet GPIb (on baboon platelets) (baboon (Papio ursinus)), sequence (A0A096 entry or part of it limits assumed, form in doubt): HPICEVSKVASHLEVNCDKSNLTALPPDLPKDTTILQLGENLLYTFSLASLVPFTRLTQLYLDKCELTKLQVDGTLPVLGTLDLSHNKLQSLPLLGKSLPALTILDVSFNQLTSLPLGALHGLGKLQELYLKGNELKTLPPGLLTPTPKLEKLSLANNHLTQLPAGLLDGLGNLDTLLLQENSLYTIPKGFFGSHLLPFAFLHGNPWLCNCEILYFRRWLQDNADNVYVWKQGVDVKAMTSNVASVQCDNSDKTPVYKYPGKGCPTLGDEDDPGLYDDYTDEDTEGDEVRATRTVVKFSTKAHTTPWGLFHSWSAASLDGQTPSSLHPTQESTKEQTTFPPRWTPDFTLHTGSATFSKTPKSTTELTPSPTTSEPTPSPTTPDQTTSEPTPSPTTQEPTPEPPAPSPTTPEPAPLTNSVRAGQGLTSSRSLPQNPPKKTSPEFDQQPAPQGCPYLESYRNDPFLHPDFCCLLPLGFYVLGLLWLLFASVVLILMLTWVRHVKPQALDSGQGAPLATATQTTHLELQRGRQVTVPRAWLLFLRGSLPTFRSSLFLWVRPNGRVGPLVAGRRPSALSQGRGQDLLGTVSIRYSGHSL

[18] = biological target: baboon platelet GPIb (on baboon platelets) (baboon (Papio ursinus)); assay: GPIb occupancy on baboon platelets, 150 minutes after bolus of 600 µg/kg
[19] = biological target: baboon platelet GPIb (on baboon platelets) (baboon (Papio ursinus)); assay: GPIb occupancy on baboon platelets, 150 minutes after bolus of 4 mg/kg
[20] = biological target: baboon platelet GPIb (on baboon platelets) (baboon (Papio ursinus)); assay: GPIb occupancy on baboon platelets, 300 minutes after bolus of 600 µg/kg
[21] = biological target: baboon platelet GPIb (on baboon platelets) (baboon (Papio ursinus)); assay: GPIb occupancy on baboon platelets, 30 minutes after bolus of 600 µg/kg
[22] = biological target: baboon platelet GPIb (on baboon platelets) (baboon (Papio ursinus)); assay: 125I-labelled fragment on baboon platelets in plasma
[23] = biological target: baboon platelet GPIb (on baboon platelets) (baboon (Papio ursinus)); assay: GPIb occupancy on baboon platelets, 60 minutes after bolus of 2 mg/kg
[24] = biological target: baboon platelet GPIb (on baboon platelets) (baboon (Papio ursinus)); assay: GPIb occupancy on baboon platelets, 300 minutes after bolus of 2 mg/kg
[25] = biological target: baboon platelet GPIb (on baboon platelets) (baboon (Papio ursinus)); assay: GPIb occupancy on baboon platelets, 30 minutes after bolus of 4 mg/kg
[26] = biological target: baboon platelet GPIb (on baboon platelets) (baboon (Papio ursinus)); assay: GPIb occupancy on baboon platelets, 60 minutes after bolus of 4 mg/kg
[27] = biological target: baboon platelet GPIb (on baboon platelets) (baboon (Papio ursinus)); assay: cell-based or functional assay
[28] = biological target: baboon platelet GPIb (on baboon platelets) (baboon (Papio ursinus)); assay: GPIb occupancy on baboon platelets, 30 minutes after bolus of 2 mg/kg
[29] = biological target: baboon platelet GPIb (on baboon platelets) (baboon (Papio ursinus)); assay: GPIb occupancy on baboon platelets, 150 minutes after bolus of 2 mg/kg
[30] = biological target: baboon platelet GPIb (on baboon platelets) (baboon (Papio ursinus)); assay: GPIb occupancy on baboon platelets, 60 minutes after bolus of 600 µg/kg
[31] = biological target: purified human von Willebrand factor (human) (UniProt P04275); assay: ELISA: inhibition of plasma or purified vWF binding to coated human collagen type I
[32] = biological target: purified human von Willebrand factor (human) (UniProt P04275); assay: cell-based or functional assay
[33] = biological target: mouse GPIIb/IIIa (on mouse platelets) (mouse) (UniProt Q9QUM0); assay: receptor occupancy on platelets of mice after 20 µg JON/A F(ab)2 i.v.
mouse GPIIb/IIIa (on mouse platelets) (mouse), sequence (Q9QUM0 32-1033, chain 1 of 2): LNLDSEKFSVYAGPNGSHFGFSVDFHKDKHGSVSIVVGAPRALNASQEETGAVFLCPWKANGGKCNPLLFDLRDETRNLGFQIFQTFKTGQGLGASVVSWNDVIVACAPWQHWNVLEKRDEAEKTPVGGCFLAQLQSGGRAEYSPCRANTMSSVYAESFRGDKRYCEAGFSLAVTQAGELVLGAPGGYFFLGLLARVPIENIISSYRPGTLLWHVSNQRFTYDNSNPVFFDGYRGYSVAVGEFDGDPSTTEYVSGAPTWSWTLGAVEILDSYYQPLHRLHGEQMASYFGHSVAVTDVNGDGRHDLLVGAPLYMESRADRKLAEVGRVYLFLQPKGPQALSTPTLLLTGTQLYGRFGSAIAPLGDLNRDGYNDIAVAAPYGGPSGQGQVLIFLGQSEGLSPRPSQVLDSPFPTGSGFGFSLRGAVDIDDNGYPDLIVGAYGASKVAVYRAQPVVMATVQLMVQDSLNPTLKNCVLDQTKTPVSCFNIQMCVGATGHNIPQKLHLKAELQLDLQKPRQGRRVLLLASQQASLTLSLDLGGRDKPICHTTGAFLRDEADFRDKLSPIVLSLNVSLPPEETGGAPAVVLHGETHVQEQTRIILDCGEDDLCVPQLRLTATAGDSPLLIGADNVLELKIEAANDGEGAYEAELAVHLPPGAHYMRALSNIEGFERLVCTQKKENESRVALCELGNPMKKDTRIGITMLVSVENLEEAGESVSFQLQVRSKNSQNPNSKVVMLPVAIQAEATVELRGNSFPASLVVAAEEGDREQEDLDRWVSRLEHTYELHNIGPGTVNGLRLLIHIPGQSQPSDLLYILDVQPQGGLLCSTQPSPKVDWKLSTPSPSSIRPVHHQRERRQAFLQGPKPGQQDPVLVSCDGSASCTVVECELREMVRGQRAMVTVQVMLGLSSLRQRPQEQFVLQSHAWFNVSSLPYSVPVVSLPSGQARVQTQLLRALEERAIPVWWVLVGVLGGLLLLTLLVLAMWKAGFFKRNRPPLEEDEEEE
mouse GPIIb/IIIa (on mouse platelets) (mouse), sequence (O54890 26-787, chain 2 of 2, further chain): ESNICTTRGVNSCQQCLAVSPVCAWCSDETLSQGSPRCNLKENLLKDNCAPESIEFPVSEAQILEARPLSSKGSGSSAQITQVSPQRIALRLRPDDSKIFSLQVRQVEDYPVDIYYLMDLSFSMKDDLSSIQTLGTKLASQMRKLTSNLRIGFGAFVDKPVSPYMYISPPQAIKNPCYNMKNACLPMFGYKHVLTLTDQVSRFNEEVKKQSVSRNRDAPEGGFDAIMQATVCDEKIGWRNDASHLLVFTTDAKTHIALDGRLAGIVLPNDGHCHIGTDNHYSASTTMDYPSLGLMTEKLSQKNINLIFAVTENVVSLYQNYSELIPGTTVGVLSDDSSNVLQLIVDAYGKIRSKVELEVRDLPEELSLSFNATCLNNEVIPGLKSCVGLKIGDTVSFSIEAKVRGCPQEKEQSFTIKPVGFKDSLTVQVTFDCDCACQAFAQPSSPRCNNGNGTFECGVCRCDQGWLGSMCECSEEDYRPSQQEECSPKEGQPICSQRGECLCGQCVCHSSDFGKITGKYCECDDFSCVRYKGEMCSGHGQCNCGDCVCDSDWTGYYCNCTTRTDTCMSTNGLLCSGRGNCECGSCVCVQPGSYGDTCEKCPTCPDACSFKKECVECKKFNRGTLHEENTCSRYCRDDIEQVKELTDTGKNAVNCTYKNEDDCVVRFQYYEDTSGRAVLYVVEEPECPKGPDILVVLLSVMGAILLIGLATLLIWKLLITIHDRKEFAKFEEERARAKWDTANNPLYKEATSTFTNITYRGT

[34] = biological target: mouse GPIIb/IIIa (on mouse platelets) (mouse) (UniProt Q9QUM0); assay: receptor occupancy on platelets of mice after 100 µg JON/A F(ab)2 i.v.
[35] = biological target: mouse GPIIb/IIIa (on mouse platelets) (mouse) (UniProt Q9QUM0); assay: receptor occupancy on platelets of mice after 10 µg JON/A F(ab)2 i.v.

human collagen type I (human), sequence (P02452 162-1218, chain 1 of 2): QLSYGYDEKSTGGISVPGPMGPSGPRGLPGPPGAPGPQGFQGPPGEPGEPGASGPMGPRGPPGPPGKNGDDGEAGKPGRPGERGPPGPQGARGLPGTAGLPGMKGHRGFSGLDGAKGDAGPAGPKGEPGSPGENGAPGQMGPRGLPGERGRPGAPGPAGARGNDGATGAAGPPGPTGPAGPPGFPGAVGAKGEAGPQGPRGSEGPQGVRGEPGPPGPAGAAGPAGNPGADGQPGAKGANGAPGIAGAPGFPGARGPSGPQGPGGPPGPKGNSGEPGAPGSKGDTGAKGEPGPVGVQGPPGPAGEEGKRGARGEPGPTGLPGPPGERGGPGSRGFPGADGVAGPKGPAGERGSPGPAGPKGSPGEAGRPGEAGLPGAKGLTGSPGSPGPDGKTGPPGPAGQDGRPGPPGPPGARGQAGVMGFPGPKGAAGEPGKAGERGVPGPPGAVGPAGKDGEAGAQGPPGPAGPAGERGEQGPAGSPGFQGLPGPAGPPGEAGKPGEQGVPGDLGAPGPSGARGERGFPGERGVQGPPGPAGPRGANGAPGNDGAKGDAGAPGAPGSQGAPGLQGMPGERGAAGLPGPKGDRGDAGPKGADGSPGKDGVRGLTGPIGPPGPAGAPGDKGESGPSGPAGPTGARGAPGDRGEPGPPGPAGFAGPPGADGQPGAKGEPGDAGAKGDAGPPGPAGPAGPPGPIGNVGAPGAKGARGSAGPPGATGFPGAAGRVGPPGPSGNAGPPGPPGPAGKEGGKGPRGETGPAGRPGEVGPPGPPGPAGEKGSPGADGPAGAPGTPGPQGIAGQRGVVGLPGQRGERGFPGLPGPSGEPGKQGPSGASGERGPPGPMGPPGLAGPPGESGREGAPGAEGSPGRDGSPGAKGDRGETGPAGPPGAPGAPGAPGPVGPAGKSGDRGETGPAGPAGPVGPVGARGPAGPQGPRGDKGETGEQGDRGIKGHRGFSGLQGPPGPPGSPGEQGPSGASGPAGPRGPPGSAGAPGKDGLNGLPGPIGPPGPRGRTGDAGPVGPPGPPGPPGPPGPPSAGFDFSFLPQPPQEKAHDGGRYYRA
human collagen type I (human), sequence (P08123 80-1119, chain 2 of 2, further chain): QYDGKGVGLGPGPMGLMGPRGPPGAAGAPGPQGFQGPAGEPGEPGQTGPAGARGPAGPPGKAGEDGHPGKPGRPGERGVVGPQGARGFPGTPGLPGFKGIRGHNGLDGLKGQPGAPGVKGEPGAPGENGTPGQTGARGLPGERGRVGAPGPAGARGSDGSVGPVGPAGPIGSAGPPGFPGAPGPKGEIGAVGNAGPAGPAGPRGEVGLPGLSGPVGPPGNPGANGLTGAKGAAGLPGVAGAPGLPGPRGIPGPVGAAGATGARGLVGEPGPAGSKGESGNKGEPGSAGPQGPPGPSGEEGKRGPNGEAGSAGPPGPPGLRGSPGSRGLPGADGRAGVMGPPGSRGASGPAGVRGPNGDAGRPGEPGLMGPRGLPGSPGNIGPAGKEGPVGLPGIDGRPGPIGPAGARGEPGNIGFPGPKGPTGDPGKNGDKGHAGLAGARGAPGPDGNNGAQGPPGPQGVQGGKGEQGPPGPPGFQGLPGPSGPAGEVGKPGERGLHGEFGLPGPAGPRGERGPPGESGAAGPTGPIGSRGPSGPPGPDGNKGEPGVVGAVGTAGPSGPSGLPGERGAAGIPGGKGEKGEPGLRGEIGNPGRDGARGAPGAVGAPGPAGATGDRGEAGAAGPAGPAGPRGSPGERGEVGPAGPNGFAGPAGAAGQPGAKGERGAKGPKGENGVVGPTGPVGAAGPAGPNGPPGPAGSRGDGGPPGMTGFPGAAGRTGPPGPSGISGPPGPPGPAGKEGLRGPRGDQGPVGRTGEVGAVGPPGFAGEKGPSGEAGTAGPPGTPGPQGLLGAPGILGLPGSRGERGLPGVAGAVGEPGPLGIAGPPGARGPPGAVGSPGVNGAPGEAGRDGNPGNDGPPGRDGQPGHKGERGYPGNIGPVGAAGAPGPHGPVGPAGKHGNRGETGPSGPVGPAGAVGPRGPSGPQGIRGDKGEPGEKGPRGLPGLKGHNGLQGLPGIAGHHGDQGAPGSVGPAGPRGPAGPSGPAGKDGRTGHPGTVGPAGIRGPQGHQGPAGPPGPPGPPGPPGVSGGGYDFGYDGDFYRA

collagen binding (%) [1]: 4% | collagen binding (%) [2]: 101% | collagen binding (%) [3]: 4% | collagen binding (%) [4]: 64% | collagen binding (%) [5]: 45% | collagen binding (%) [6]: 4% | collagen binding (%) [7]: 4% | collagen binding (%) [8]: 69% | collagen binding (%) [9]: 101% | collagen binding (%) [10]: 3.5% | collagen binding (%) [11]: 4% | collagen binding (%) [12]: 4% | collagen binding (%) [13]: 3.52% | collagen binding (%) [14]: 93% | collagen binding (%) [15]: 91% | collagen binding (%) [16]: 100%
Substance: baboon vWF (in baboon plasma), A0A096N8H2 764-2813

receptor occupancy [17]: 31.3% | receptor occupancy [18]: 17.1% | receptor occupancy [19]: 45.6% | receptor occupancy [20]: 6.3% | receptor occupancy [21]: 34.5% | KD50 (half saturation) [22]: 49.2 nmol/L | receptor occupancy [23]: 64.8% | receptor occupancy [24]: 12.9% | receptor occupancy [25]: 84% | receptor occupancy [26]: 79% | % inhibition of ex vivo ristocetin-induced (1.5 mg/mL) platelet agglutination; after 160 µg/kg, time 270 min [27]: 8% | % inhibition of ex vivo ristocetin-induced (1.5 mg/mL) platelet agglutination; after 640 µg/kg, time 270 min [27]: 15% | % inhibition of ex vivo ristocetin-induced (1.5 mg/mL) platelet agglutination; after 640 µg/kg, time 24 h [27]: 7% | % inhibition of ex vivo ristocetin-induced (1.5 mg/mL) platelet agglutination; dose 80 µg/kg, time 90 min [27]: 26% | % inhibition of ex vivo ristocetin-induced (1.5 mg/mL) platelet agglutination; dose 160 µg/kg, time 150 min [27]: 47% | % inhibition of ex vivo ristocetin-induced (1.5 mg/mL) platelet agglutination; dose 320 µg/kg, time 90 min [27]: 25% | % inhibition of ex vivo ristocetin-induced (1.5 mg/mL) platelet agglutination; dose 640 µg/kg, time 150 min [27]: 80% | IC50 of ristocetin-induced baboon platelet aggregation [27]: 40 nmol/L | ex vivo ristocetin-induced platelet aggregation, % of the response before injection; 600 µg/kg, 60 minutes [27]: 16.8% | ex vivo ristocetin-induced platelet aggregation, % of the response before injection; 600 µg/kg, 150 minutes [27]: 68.8% | ex vivo ristocetin-induced platelet aggregation, % of the response before injection; 2 mg/kg, 60 minutes [27]: 5.2% | ex vivo ristocetin-induced platelet aggregation, % of the response before injection; 2 mg/kg, 150 minutes [27]: 19.2% | ex vivo ristocetin-induced platelet aggregation, % of the response before injection; 4 mg/kg, 60 minutes [27]: 2% | ex vivo ristocetin-induced platelet aggregation, % of the response before injection; 4 mg/kg, 150 minutes [27]: 16% | receptor occupancy [28]: 69.3% | receptor occupancy [29]: 43.9% | receptor occupancy [30]: 28.6%
Substance: 6B4 Fab fragments

IC50 [31]: 1 µg/mL | concentration for complete inhibition of platelet deposition on human collagen type I under flow, shear rate 1300 s^-1 [32]: 10 µg/mL
Substance: 82D6A3 F(ab) fragment (Fab)

Receptor occupancy, % [33]: 78.4% | Receptor occupancy, % [34]: > 95% | Receptor occupancy, % [35]: 67.8%
Substance: JON/A F(ab)2 (antibody)
